Experimental data taken from paper PMC4370635, “ARF6 Promotes the Formation of Rac1 and WAVE-Dependent Ventral F-Actin Rosettes in Breast Cancer Cells in Response to Epidermal Growth Factor” (PLoS ONE, 2015).

Biological target: T1, GST fused with the ARF6-binding domain (LZII, leucine zipper II domain) of human JIP3 (aa 371-507) (human, UniProt Q9UPT6 371-507)
T1 construct: JIP3, human, residues 371-507 (LZII, leucine zipper II domain); also called GST-LZII; LZII domain of human JIP3; source: pGEX construct, purified as described [35]; not shown: GST, N-terminal, kept
T1 sequence (looked up): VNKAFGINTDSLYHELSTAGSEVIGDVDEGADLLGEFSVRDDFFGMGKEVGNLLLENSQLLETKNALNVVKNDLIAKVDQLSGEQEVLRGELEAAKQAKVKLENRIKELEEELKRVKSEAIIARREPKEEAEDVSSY
Test: pull-down; GST-LZII (37 ug/reaction) incubated with cleared MDA-MB-231 cell lysates for 15 min at 4°C with 0.5% BSA, then glutathione-Sepharose beads for 1 h at 4°C; lysis buffer 50 mM Tris pH 7.4, 137 mM NaCl, 10 mM MgCl2, 10% glycerol, 1% Triton-X100; bound proteins immunoblotted with anti-ARF6 monoclonal antibody
Conditions: one partner purified

B1: ARF6T157N (natural protein, UniProt P62330 1-175, looked up)
chain: MGKVLSKIFGNKEMRILMLGLDAAGKTTILYKLKLGQSVTTIPTVGFNVETVTYKNVKFNVWDVGGQDKIRPLWRHYYTGTQGLIFVVDCADRDRIDEARQELHRIINDREMRDAIILIFANKQDLPDAMKPHEIQEKLGLTRIRDRNWYVQPSCANSGDGLYEGLTWLTSNYKS
notes: ADP-ribosylation factor 6 (ARF6), fast-cycling mutant T157N; also called fast-cycling mutant of ARF6; ARF6T15TN
  fold increase in GTP-ARF6 pulled down, against parental MDA-MB-231 cells: ~4 fold
